Laboratory results published in patent publication US20240376204A1 (JIANGSU HENGRUI PHARMACEUTICALS, published 2024).
Like-named read-outs stand apart in the source and are kept apart here. Blank lines part the entries; values can stand above or below the binder they belong to.

Key:
[1] = target: T1, human PD-1 expressed on cells (human, UniProt Q15116 25-288); experiment: cell-based or functional assay
[2] = target: T1, human PD-1 expressed on cells; experiment: cell-based or functional assay; remark: listed apart in the source
[3] = target: T2, his-tagged human PVRIG (h-PVRIG-his) recombinant protein (human, UniProt Q6DKI7 41-171, limits assumed); experiment: ELISA, plate coated with PVRIG protein (his tag)
T2 construct: Acrobiosystems; also called Human PVRIG-his; human PVRIG recombinant protein; not shown: his tag
T2 sequence (looked up): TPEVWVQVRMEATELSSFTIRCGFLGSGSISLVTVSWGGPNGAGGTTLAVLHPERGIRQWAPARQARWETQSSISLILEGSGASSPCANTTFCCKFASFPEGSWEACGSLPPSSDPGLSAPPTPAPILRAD
Protocol: ELISA assays were performed. TIGIT or PVRIG protein (his tag, Acrobiosystems, PVG-H52H4) was dissolved in PBS to 1 μg/mL, and the solution was added to a 96-well plate at 100 μL/well. The plate was coated with the antigen overnight at 4° C. The plate was washed with PBST solution three times. PBST/1% BSA solution was added, and the plate was incubated at 37° C. for 1 h for blocking. After three washes with PBST solution, different concentrations of the trispecific antibodies (diluted with PBST/1% BSA solution) were added, and the plate was incubated at 37° C. for 1.5 h. The plate was washed with PBST solution three times. […] After three washes with PBST solution, TMB solution was added at 100 μL/well. After 5 min of reaction at room temperature, 50 μL of stop solution was added. OD450 values were measured using a microplate reader, and EC₅₀ was calculated.

[4] = target: T3, human TIGIT recombinant protein (human, UniProt Q495A1 22-141); experiment: ELISA by the method of Example 2-2 with human TIGIT; numbers not given
T3 construct: also called human TIGIT antigen (AcroBiosystem, TIT-H52H3); TIGIT protein
T3 sequence (looked up): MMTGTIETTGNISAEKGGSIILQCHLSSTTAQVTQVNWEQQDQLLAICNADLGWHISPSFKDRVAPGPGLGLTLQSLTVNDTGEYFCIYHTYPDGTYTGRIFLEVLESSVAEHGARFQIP

[5] = target: T4, human TIGIT expressed on cells (human, UniProt Q495A1 22-244); experiment: FACS by the method of Example 2-2 with human TIGIT; numbers not given
T4 construct: whole, on cells; also called cells overexpressing human TIGIT; CHO-K1 cell strain expressing the human TIGIT gene
T4 sequence (looked up): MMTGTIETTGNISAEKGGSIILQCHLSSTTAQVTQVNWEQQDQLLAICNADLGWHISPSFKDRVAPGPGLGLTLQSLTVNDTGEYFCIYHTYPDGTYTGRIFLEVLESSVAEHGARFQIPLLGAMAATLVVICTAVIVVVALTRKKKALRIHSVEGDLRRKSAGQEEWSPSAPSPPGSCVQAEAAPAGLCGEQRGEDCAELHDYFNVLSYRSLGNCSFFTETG

[6] = target: T5, human PVRIG expressed on cells (human, UniProt Q6DKI7 41-326); experiment: cell-based or functional assay
T5 sequence (looked up): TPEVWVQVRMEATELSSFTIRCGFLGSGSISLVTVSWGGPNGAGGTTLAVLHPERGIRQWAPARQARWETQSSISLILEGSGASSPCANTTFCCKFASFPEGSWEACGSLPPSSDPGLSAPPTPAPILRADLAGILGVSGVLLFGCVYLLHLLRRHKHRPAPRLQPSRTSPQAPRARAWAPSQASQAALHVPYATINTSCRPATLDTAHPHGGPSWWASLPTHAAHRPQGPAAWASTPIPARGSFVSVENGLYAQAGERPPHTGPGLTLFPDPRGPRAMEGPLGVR

[7] = target: T5, human PVRIG expressed on cells; experiment: cell-based or functional assay; remark: listed apart in the source
[8] = target: T5, human PVRIG expressed on cells; experiment: cell-based or functional assay; remark: listed apart in the source
[9] = target: T2, his-tagged human PVRIG (h-PVRIG-his) …; experiment: BLI (Fortebio), antibody on Protein A sensor, his-tagged human PVRIG as analyte
Protocol: A Protein A biosensor (Fortebio, #18-5010) was immersed in 200 μL of KB buffer (PBS, pH 7.4, 0.02% tween-20, 0.10% BSA) for 60 s as a wetting treatment. Then an anti-PVRIG antibody was diluted to 10 μg/mL with KB buffer, and the sensor was immersed in 200 μL of the solution until the reading was 1.2 nm. The sensor was immersed in KB buffer for 100 s to remove excess antibody. […] The sensor was placed in the solution for 300 seconds of binding and then in KB buffer for 600 seconds of dissociation. Fitting was performed using a dynamic 1:1 binding mode.

T1 sequence (Q15116 25-288 limits assumed): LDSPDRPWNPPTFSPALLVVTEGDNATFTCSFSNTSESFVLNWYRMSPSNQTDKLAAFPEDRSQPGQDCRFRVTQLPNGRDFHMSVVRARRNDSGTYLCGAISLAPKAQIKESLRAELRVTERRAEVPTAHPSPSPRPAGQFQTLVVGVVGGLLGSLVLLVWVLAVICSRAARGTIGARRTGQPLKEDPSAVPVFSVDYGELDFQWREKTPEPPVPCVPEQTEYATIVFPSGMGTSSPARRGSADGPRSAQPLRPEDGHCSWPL

DC:T MLR result, 0.1 nM antibody (unit not given) [1]: 118
DC:T MLR result, 1 nM antibody (unit not given) [1]: 136
DC:T MLR result, 10 nM antibody (unit not given) [1]: 151
DC:T MLR result, 100 nM antibody (unit not given) [1]: 152
IC50 (read off the curve) [2]: ~0.8 nM
EC50 [3]: 0.16 nM
B1: A17h1-1708-151H7-C (trispecific antibody, human IgG4 S228P, kappa)
heavy: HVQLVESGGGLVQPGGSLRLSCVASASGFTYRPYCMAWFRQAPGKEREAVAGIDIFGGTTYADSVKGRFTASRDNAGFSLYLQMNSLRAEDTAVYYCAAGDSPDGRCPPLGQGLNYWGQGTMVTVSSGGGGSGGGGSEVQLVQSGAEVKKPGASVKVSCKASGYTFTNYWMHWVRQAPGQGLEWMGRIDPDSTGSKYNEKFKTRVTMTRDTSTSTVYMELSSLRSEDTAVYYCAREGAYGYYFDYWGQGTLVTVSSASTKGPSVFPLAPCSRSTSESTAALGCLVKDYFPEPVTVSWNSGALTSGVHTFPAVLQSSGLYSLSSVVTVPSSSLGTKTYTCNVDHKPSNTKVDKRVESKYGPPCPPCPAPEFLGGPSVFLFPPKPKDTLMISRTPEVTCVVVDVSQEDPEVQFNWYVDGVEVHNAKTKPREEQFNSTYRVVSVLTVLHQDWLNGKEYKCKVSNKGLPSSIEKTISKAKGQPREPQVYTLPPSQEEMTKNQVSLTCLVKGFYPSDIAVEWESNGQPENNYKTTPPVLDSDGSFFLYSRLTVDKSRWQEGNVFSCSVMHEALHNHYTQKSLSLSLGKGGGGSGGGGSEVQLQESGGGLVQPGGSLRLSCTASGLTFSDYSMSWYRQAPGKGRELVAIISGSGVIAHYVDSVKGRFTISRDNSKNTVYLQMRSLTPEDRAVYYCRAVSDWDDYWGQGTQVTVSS
light: DIQMTQSPSSLSASVGDRVTITCRASENIYSYLAWYQQKPGKSPKLLIYNARTLAEGVPSRFSGSGSGTDFTLTISSLQPEDFATYYCQYHSGSPLPFGGGTKVEIKRTVAAPSVFIFPPSDEQLKSGTASVVCLLNNFYPREAKVQWKVDNALQSGNSQESVTEQDSKDSTYSLSSTLTLSKADYEKHKVYACEVTHQGLSSPVTKSFNRGEC
notes: Type C

DC:T MLR result, 0.1 nM antibody (unit not given) [1]: 91.3
DC:T MLR result, 1 nM antibody (unit not given) [1]: 121
DC:T MLR result, 10 nM antibody (unit not given) [1]: 147
DC:T MLR result, 100 nM antibody (unit not given) [1]: 155
IC50 (read off the curve) [2]: ~0.9 nM
EC50 [3]: 0.0952 nM
B2: A17h1-1708-151H7-A (trispecific antibody, human IgG4 S228P, kappa)
heavy: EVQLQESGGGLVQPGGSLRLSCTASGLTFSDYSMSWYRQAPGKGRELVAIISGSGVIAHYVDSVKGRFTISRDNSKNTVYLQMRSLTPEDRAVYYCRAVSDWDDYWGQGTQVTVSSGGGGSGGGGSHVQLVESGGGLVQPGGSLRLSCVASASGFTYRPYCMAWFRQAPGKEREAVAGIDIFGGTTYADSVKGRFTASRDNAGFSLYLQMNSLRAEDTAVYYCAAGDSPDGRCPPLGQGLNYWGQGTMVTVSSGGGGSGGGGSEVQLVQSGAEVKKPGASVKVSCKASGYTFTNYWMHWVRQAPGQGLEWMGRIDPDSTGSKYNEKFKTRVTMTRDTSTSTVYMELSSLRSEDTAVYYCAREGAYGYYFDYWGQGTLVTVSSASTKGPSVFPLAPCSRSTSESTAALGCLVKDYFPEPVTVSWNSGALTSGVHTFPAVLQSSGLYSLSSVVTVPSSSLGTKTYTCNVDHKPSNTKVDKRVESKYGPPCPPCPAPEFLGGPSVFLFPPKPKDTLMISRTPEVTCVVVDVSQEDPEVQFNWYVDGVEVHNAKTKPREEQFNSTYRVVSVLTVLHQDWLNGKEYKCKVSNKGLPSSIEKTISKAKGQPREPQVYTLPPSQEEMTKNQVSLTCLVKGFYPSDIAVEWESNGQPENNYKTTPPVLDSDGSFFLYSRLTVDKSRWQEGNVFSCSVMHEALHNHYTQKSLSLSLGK
light: B1 light

binding result [4]: binds
binding result [5]: binds
B3: 1708-151-2 (bispecific antibody, human IgG4 S228P, kappa)
heavy: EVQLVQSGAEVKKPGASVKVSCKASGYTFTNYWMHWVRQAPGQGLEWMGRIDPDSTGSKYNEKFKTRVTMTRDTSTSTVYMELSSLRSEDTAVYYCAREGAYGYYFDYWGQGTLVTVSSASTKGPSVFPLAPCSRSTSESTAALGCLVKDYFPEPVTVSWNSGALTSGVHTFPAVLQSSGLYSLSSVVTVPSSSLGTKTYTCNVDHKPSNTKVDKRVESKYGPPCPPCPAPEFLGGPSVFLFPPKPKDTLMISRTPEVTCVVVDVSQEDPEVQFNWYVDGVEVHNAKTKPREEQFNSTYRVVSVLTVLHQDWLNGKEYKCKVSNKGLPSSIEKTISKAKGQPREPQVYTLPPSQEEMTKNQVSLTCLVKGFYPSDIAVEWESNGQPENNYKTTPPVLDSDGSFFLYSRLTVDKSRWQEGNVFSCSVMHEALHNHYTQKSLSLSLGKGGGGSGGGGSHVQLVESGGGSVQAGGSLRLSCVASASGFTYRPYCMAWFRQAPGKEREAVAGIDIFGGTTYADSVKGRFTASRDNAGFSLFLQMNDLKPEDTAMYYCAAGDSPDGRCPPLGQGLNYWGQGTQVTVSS
light: B1 light
notes: Anti-PVRIG/TIGIT

binding result [4]: binds
binding result [5]: binds
B4: 1708-151-1 (bispecific antibody, human IgG4 S228P, kappa)
heavy: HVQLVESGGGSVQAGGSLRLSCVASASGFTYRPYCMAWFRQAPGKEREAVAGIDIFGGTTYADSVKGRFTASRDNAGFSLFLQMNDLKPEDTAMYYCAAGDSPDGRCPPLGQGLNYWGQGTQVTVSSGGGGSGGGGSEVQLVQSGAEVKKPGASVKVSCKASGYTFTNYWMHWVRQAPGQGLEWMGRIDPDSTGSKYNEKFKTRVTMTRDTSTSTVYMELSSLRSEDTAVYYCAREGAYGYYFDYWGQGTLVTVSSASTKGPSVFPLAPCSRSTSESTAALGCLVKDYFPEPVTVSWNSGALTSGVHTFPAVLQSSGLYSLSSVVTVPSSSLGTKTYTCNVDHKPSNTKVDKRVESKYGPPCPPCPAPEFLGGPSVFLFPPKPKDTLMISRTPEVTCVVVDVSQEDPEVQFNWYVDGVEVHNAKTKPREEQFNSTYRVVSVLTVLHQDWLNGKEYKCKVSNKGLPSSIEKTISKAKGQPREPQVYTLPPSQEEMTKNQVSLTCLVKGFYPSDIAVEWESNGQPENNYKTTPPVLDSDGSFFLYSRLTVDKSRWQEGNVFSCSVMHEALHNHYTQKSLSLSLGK
light: B1 light
notes: Anti-PVRIG/TIGIT

Continued, binder first:

B5: Tab5 (antibody, human IgG4 S228P, kappa, F234A L235A, V domains shown)
VH: EVQLVESGGGVVKPGGSLRLSCAASGFTFGTSSMNWVRQAPGKGLEWVAVISFDGTEIHYADSVKGRFTISRDNSKSTVFLQMNSLRPDDTALYYCAKGSGNIYFYSGMDVWGQGTTVTVSS
VL: DIQMTQSPSTLSASVGDRVTITCRAGQSISGWLAWFQQKPGKAPNLLIYETSTLESGVPSRFSGSGSGTEYTLTISSLQPDDFATYYCQQYYSYPLTFGQGTKVEIKR
notes: Anti-PVRIG positive control, IgG4 S228P/F234A/L235A/K447A; also called positive antibody Tab5; CPA.7.021 variable regions on human IgG4/kappa
PVRIG reporter gene cell activity EC50 [6]: 0.74 nM
PVRIG reporter gene cell activity EC50 [7]: 1.38 nM
IFNγ, mixed lymphocyte reaction, 4 nM antibody [8]: 912 pg/mL
IFNγ, mixed lymphocyte reaction, 20 nM antibody [8]: 1420 pg/mL
IFNγ, mixed lymphocyte reaction, 100 nM antibody [8]: 2350 pg/mL
kon [9]: 737000 M⁻¹ s⁻¹

B6: A17h1-1708-151H7-D (trispecific antibody, human IgG4 S228P, kappa)
heavy: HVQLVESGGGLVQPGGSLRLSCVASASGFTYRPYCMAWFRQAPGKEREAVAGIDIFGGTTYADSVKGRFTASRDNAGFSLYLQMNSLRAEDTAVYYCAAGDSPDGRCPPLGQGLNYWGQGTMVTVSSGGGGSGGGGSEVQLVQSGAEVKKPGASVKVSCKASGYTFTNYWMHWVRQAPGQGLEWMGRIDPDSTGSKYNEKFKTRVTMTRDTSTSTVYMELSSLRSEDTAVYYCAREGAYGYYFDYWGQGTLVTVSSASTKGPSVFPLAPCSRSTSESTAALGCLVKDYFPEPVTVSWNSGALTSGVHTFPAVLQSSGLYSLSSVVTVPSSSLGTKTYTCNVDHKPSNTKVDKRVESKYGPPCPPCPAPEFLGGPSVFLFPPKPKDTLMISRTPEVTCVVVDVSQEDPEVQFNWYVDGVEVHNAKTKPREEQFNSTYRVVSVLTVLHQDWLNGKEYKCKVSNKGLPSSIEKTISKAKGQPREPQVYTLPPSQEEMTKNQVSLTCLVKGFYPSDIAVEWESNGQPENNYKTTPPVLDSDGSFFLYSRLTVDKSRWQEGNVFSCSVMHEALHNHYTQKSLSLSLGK
light: DIQMTQSPSSLSASVGDRVTITCRASENIYSYLAWYQQKPGKSPKLLIYNARTLAEGVPSRFSGSGSGTDFTLTISSLQPEDFATYYCQYHSGSPLPFGGGTKVEIKRTVAAPSVFIFPPSDEQLKSGTASVVCLLNNFYPREAKVQWKVDNALQSGNSQESVTEQDSKDSTYSLSSTLTLSKADYEKHKVYACEVTHQGLSSPVTKSFNRGECGGGGSGGGGSEVQLQESGGGLVQPGGSLRLSCTASGLTFSDYSMSWYRQAPGKGRELVAIISGSGVIAHYVDSVKGRFTISRDNSKNTVYLQMRSLTPEDRAVYYCRAVSDWDDYWGQGTQVTVSS
DC:T MLR result, 0.1 nM antibody (unit not given) [1]: 84.8
DC:T MLR result, 1 nM antibody (unit not given) [1]: 97.3
DC:T MLR result, 10 nM antibody (unit not given) [1]: 137
DC:T MLR result, 100 nM antibody (unit not given) [1]: 149
IC50 (read off the curve) [2]: ~1 nM
EC50 [3]: 0.158 nM

B7: 1708-151-3 (bispecific antibody, human IgG4 S228P, kappa)
heavy: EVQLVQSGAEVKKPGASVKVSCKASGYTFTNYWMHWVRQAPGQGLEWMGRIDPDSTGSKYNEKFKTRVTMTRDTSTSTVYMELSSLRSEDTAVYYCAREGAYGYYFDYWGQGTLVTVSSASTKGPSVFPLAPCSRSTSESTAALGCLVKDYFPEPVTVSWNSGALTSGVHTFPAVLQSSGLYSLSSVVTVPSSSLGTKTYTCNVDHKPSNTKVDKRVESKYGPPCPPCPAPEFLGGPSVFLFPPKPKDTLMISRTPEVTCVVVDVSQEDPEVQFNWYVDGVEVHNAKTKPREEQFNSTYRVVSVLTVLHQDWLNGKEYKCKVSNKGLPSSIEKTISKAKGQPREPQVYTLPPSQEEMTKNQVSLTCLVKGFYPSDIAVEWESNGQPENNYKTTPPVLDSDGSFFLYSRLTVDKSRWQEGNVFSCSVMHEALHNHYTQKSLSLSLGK
light: HVQLVESGGGSVQAGGSLRLSCVASASGFTYRPYCMAWFRQAPGKEREAVAGIDIFGGTTYADSVKGRFTASRDNAGFSLFLQMNDLKPEDTAMYYCAAGDSPDGRCPPLGQGLNYWGQGTQVTVSSGGGGSGGGGSDIQMTQSPSSLSASVGDRVTITCRASENIYSYLAWYQQKPGKSPKLLIYNARTLAEGVPSRFSGSGSGTDFTLTISSLQPEDFATYYCQYHSGSPLPFGGGTKVEIKRTVAAPSVFIFPPSDEQLKSGTASVVCLLNNFYPREAKVQWKVDNALQSGNSQESVTEQDSKDSTYSLSSTLTLSKADYEKHKVYACEVTHQGLSSPVTKSFNRGEC
notes: Anti-PVRIG/TIGIT
binding result [4]: binds
binding result [5]: binds

B8: 1708-151-4 (bispecific antibody, human IgG4 S228P, kappa)
heavy: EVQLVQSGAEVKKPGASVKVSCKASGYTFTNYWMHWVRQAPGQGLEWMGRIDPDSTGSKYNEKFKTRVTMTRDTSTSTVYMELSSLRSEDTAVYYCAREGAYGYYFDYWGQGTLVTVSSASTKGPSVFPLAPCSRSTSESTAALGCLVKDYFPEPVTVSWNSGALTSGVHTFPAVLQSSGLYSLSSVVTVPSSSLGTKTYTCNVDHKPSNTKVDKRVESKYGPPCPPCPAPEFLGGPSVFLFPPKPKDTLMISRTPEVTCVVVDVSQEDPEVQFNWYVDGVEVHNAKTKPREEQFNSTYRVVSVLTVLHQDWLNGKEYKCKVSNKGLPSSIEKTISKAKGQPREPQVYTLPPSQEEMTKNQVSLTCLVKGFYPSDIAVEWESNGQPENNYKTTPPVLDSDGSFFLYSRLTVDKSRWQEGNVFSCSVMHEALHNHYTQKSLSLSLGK
light: DIQMTQSPSSLSASVGDRVTITCRASENIYSYLAWYQQKPGKSPKLLIYNARTLAEGVPSRFSGSGSGTDFTLTISSLQPEDFATYYCQYHSGSPLPFGGGTKVEIKRTVAAPSVFIFPPSDEQLKSGTASVVCLLNNFYPREAKVQWKVDNALQSGNSQESVTEQDSKDSTYSLSSTLTLSKADYEKHKVYACEVTHQGLSSPVTKSFNRGECGGGGSGGGGSHVQLVESGGGSVQAGGSLRLSCVASASGFTYRPYCMAWFRQAPGKEREAVAGIDIFGGTTYADSVKGRFTASRDNAGFSLFLQMNDLKPEDTAMYYCAAGDSPDGRCPPLGQGLNYWGQGTQVTVSS
notes: Anti-PVRIG/TIGIT
binding result [4]: binds
binding result [5]: binds
